Key:
[1] = AF4-MALS fractionation of re-solubilized samples; format: physicochemical
Description: Samples were analyzed using an AF4 frit inlet (FI) channel equilibrated in 1 mM NaOH, with a 250 μm spacer and a 1 kDa PES membrane, and in-line UV (280 nm; Shimadzu, U.K.), MALS, and RI detectors. Except where otherwise stated, the channel, associated pumps, autosampler, and detectors were purchased or loaned from Postnova Analytics (Landsberg am Lech, Germany). The RI detector was purged following equilibration, and the UV and RI detectors were then zeroed. […] The sample was separated in a 1 mM NaOH mobile phase, with 0.2 mL/min TIP and detector flow; the focus and cross-flow rates were also matched to one another and varied throughout the run.
Data processing and estimation of sample concentration, molecular weight, and recovery were carried out in the AF2000 Control software (Postnova Analytics, Landsberg am Lech, Germany), with additional data processing in GraphPad Prism version 8.3.0. […] We note that, although there is an isosbestic point nearby at 276 nm, the relatively rapid decrease in tyrosine absorbance and increase in tyrosinate absorbance to the right of this point mean that deprotonation still has a significant effect on the extinction coefficient at 280 nm. […] As a result, the tyrosine/tyrosinate extinction coefficient is more appropriate for analysis of the monomer and oligomer fractions in our AF4-MALS runs. Molecular weight values were calculated by fitting models to the UV280 and MALS signals. The molecular weights in Figure 2e were obtained using a fourth-degree Berry fit from 2.0 to 7.0 min, a linear Zimm fit from 7.0 to 12.5 min, and a third-degree Berry fit from 28.0 to 50.0 min. The molecular weights in Figure 3c were obtained using a linear Zimm fit. […] This summation tends toward an exact integral as Δt → 0, and the experimental parameter of Δt = 0.12 min was sufficiently small for the approximation to be reasonably accurate. The probability density function p(M), which gives the probability density of species with mass M, can be calculated as p(M) = dP(Mw ≤ M)/dM. However, when presenting the data on a logarithmic axis, peaks in the probability density function are horizontally stretched at low M and horizontally compressed at high M, meaning that the peak area is no longer proportional to the mass of material.

[2] = Global fitting of ThT self-assembly curves to nucleated polymerization models; format: physicochemical; conditions: global fit
Source text: To test whether an equivalent analysis favored
106 four models to ﬁt the experimental data. Each model was globally ﬁtted, with all kinetic 107 parameters shared across initial monomer concentrations.
Firstly, we tested the Oosawa model (19). In this model, ﬁbrils form by primary nucle-ation, which behaves as annthc -order multimerization process. Fibrils then grow by stepwise addition of monomers to the ﬁbril end, which behaves as a second-order association between a ﬁbril and a free monomer. This model admits the exact solution (13, 20) […]
m(0) = 1−sech2/nc 2 λt , (S2)
109 Here, kn is the rate parameter for primary nucleation and k+ is the rate parameter for 110 elongation. As shown in Figure S8(a), the Oosawa model results in a poor ﬁt. Speciﬁcally, 111 the lack of a secondary process means the model cannot produce exponential early-time 112 scaling, and lacks a pronounced lag phase. This […] our observation of exponential 113 early-time kinetics, and the ﬁndings of previous work (16).
Next, we tested models that included a secondary process. Three such processes were considered: fragmentation (13, 14, 21), single-step secondary nucleation (14), and saturable multi-stepsecondarynucleation(17,18). Inallthreecases, theapproximatesolutionhasthe same mathematical form, and the models diﬀer only in the deﬁnitions of certain parameters.
The general equation is (13, 14, 21)
M(t) B− +C+eκt κ˜k∞e−k∞t, (S4) m(0) = 1− B+ +C+eκt B− +C+
Here, λ has the same deﬁnition as Eq. (S3), andκ and k∞ have model-speciﬁc deﬁnitions.
Since fragmentation can be treated as a special case of secondary nucleation (14, 16), we begin with the deﬁnitions for single-step secondary nucleation, […]
114 where k2 is the (n2 + 1)th-order rate constant for formation of a secondary ﬁbril nucleus 115 of eﬀective sizen2, at a rate also proportional to the concentration of monomers already 116 incorporated into ﬁbrils (14).
The correct solution for fragmentation can be obtained by taking the limit n2→ 0 (in practice, setting n2 = 10−3) and substituting (13, 14, 21)
117 wherekf is the rate constant for fragmentation at each possible break point along the length 118 of the ﬁbril. When ﬁtting the fragmentation-dominated model, the value ofkf was con-119 strained such thatkfk+ =knk+× (10−5.5 M)nc/(10−8 M), a constraint that was also applied 120 in (16). This ensures that fragmentation becomes dominant when the ﬁbril mass concen-121 tration M(t)≈ 10 nM for a reaction with initial monomer concentration m(0) =√10 µM, 122 forcing the ﬁtting algorithm to maintain an appreciable level of fragmentation. Without 123 this constraint, kf is simply minimized in order to attain a high concentration-dependence, […]
124 resulting in a ﬁt very similar to that obtained for the Oosawa model (16). […]
used with the modiﬁed deﬁnitions
A(t) =− λ2nc− 2k2k+K2m(0)log [K2 +m(t)n2]n2
125 where K2 is the eﬀective Michaelis constant for secondary nucleation, and2F1 is a hyper-126 geometric function. Note that, unlike traditional Michaelis-Menten kinetics, the rate of 127 saturable secondary nucleation has an nth2 -order rather than a linear dependence on m(t) in 128 the low concentration limit (15, 17, 18).
129 As shown in Figure S8(b), fragmentation succeeds in producing exponential early-time 130 scaling and a pronounced lag phase, but also results in a weak concentration-dependence 131 and an overly sharp approach to the maximum ﬂuorescence intensity. The latter two issues 132 are caused by the insensitivity of fragmentation to depletion of the free monomer, and 133 also lead to a high ﬁtted reaction order of primary nucleation (nc = 5.23), an attempt to 134 compensate for the weak concentration scaling of the secondary process. Had the value 135 of kf been left unconstrained, the ﬁt would instead have done this by minimising the role 136 of the concentration-insensitive secondary pathway, producing a ﬁt similar to Figure S8(a).
138 better ﬁt, as it is able to simultaneously produce exponential early-time scaling, the correct […]

[3] = 50 mM NaOH, 20 μg injected, mean ± SD
[4] = 50 mM NaOH, geometric average Mw elugram, ROI 3.3–20.0 min
[5] = 5 min sonication in 50 mM NaOH (pH ≈ 12.5), 20 μg injected, 1 mM NaOH mobile phase, UV280, mean ± SD, n = 12
[6] = re-solubilized in 10 mM NaOH without HFIP, 20 μg injected, 1 mM NaOH mobile phase, UV280, mean ± SD

## Aβ(1-42): Ultrapure recombinant Aβ(1-42) purchased from rPeptide, lyophilized from HFIP; disordered amyloid-forming peptide
[1]; 10 mM NaOH preparations with higher pH (≳10.0) after re-solubilization, 20 μg injected, mean ± SD
  material eluting in peak 2: 18.30 ± 1.17 µg
[1]; 10 mM NaOH preparations with more neutral pH (≲8.0) after re-solubilization, 20 μg injected, mean ± SD
  material eluting in peak 2: 7.62 ± 2.20 µg
[1]; 10 mM NaOH preparations, more neutral samples (≲8.0), 20 μg injected, mean ± SD
  recovery in peak 1: 6.32 ± 6.62 µg
[1]; 10 mM NaOH, relative to injected mass of 20 μg, ± SD
  fraction of sample eluting in peak 3: ~11 ± 5%
[1]; [3]
  recovery from the first two regions of interest (1.5–30.0 min): 19.90 ± 0.99 µg
  total recovery across all three regions of interest: 20.62 ± 1.19 µg
[1]; [4]
  sample eluting in fractions suggestive of dimer or larger: 12%
  sample eluting in fractions with Mw closer to the monomer: 88%
[1]; 50 mM NaOH, geometric mean of 10 concordant Mw elugrams, linear Zimm fit
  Mw of eluting material from 4.0 to 5.0 min: ~4500 Da
[1]; 50 mM NaOH, sample eluting 3.3–20.0 min, from average elugram and UV280
  major peak of the molecular weight distribution: ~4500 Da
[1]; [5]
  material eluting in the peak 1 region (1.5–3.3 min): 0.31 ± 0.17 µg
  material eluting in the peak 2 region (3.3–30.0 min): 19.59 ± 0.90 µg
  material eluting in the peak 3 region (>30 min), nominal: 0.72 ± 0.32 µg
[1]; [6]
  material eluting in peak 1 (1.5–3.3 min): 3.99 ± 5.92 µg
  material eluting in peak 2 (3.3–30.0 min), monomer and small oligomer: 11.73 ± 5.70 µg
  material eluting in peak 3 (30.0–60.0 min): 2.11 ± 0.95 µg
[1]; re-solubilized in 10 mM NaOH, 20 μg injected, mean ± SD
  total material eluted in the AF4 run: 17.82 ± 6.68 µg
[2]; fragmentation model, kf constrained
  nc: 5.23
[2]; primary nucleation only (Oosawa model), 1.5–6.0 μM, sample 50-5-N-13
  nc: 2.37
[2]; saturable secondary nucleation
  K2 (effective Michaelis constant for secondary nucleation): 2.74 µM
  n2: 2.37
[2]; saturable secondary nucleation, nc = n2 constrained
  nc: 2.37
[2]; single-step secondary nucleation
  n2: 1.68
[2]; single-step secondary nucleation, nc = n2 constrained
  nc: 1.68
